Earlier results, collected in paper PMC3267162.
Read-outs that look alike come from different tables or passages of the source.

Legend:
LRP (Homo sapiens) = LRP (Homo sapiens) (UniProt Q07954)
PTPzeta (Homo sapiens) [1] = biological target: PTPzeta (Homo sapiens) (UniProt P23471)
PTPzeta (Homo sapiens) [2] = biological target: PTPzeta (Homo sapiens) (UniProt P23471); remark: listed apart in the source

UniProt P23471, sequence (P23471 25-1636): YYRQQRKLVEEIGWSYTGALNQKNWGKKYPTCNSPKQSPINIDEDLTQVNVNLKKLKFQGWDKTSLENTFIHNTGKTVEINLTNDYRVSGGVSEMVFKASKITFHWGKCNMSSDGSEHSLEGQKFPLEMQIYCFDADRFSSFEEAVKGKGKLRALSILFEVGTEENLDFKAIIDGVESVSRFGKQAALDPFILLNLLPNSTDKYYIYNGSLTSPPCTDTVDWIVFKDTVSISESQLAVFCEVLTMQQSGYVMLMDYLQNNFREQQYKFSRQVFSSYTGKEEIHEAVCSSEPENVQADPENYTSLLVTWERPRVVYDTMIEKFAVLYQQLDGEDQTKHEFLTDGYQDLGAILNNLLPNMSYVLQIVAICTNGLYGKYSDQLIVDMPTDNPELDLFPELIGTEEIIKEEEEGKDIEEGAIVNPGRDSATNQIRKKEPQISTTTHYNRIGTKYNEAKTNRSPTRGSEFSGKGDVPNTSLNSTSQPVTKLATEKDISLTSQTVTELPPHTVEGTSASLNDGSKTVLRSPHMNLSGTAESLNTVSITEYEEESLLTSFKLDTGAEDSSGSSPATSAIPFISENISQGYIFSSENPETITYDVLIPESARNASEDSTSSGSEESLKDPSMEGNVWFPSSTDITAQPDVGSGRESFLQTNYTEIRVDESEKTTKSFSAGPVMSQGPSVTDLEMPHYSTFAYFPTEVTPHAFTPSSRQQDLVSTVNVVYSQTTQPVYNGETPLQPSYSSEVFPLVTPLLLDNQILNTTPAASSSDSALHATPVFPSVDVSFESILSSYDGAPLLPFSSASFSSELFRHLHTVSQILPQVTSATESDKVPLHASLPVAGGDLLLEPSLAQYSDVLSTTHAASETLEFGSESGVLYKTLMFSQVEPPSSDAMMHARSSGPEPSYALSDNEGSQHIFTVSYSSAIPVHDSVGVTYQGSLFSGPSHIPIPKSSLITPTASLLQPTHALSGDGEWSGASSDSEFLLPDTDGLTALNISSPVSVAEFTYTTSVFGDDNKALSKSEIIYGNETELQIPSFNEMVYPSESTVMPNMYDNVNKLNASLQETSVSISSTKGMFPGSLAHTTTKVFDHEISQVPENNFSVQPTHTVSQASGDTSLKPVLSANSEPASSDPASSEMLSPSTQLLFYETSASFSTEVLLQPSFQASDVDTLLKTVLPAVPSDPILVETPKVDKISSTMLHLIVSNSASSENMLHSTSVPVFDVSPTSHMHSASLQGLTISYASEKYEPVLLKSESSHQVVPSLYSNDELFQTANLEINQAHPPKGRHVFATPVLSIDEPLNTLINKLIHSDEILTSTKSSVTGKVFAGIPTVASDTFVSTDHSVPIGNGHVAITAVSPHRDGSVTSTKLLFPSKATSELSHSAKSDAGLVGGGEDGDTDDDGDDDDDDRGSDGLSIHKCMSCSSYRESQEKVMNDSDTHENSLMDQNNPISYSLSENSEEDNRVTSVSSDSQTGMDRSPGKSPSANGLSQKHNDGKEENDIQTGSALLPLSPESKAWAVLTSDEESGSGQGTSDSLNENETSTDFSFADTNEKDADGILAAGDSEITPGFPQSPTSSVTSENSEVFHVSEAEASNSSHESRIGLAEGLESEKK

Q: For Midkine (from UniProt P21741), which Kd (LRP (Homo sapiens)) is on record?
A: 3.5 nM

Q: What about the Kd (PTPzeta (Homo sapiens) [1]) of the same substance?
A: 8.8 nM

Q: What about the Kd (PTPzeta (Homo sapiens) [2]) of the same substance?
A: 0.58 nM
